Columns and labels:
Assay in all cases: holdup assay
Set-up in all cases: key: below the threshold = too weak to quantify, mostly under pKd 3.1 to 4
Details in all cases: plain residues with an end cap or a label only (N-terminal biotin on a linker: ado-ado)
ARHGEF11, O15085 = molecular target: T1, ARHGEF11, O15085
T1 sequence (O15085 42-136, limits assumed, looked up): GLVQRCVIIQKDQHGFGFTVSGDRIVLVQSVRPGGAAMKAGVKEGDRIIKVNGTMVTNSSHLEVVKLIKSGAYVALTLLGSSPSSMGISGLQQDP

DLG1_1, Q12959 = molecular target: DLG1_1, Q12959
DLG2_3, Q15700 = molecular target: DLG2_3, Q15700
DLG3_2, Q92796 = molecular target: T2, DLG3_2, Q92796
T2 sequence (Q92796 221-321, limits assumed, looked up): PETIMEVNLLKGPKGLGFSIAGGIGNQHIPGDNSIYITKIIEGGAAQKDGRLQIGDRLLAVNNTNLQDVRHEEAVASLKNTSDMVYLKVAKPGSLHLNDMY

DLG5_1, Q8TDM6 = molecular target: DLG5_1, Q8TDM6
DLG5_1, Q8TDM6, sequence (Q8TDM6 617-713): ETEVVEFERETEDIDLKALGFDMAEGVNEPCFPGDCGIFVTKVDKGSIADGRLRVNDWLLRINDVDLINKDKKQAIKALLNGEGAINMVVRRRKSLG

FRMPD1, Q5SYB0 = molecular target: T3, FRMPD1, Q5SYB0
T3 sequence (Q5SYB0 52-145, limits assumed, looked up): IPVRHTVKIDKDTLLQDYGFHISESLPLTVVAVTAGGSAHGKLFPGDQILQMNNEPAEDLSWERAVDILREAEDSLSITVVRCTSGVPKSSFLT

GIPC2, Q8TF65 = molecular target: GIPC2, Q8TF65
GIPC2, Q8TF65, sequence (Q8TF65 112-203): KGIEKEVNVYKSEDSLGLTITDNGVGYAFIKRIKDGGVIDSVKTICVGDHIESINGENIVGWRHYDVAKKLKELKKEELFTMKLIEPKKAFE

GORASP2, Q9H8Y8 = molecular target: GORASP2, Q9H8Y8
GRASP, Q7Z6J2 = molecular target: GRASP, Q7Z6J2
GRASP, Q7Z6J2, sequence (Q7Z6J2 96-193): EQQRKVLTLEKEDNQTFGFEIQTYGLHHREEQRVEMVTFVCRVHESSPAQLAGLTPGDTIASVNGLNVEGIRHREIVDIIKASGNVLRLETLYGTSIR

GRID2IP_1, A4D2P6 = molecular target: GRID2IP_1, A4D2P6
GRID2IP_1, A4D2P6, sequence (A4D2P6 1-87): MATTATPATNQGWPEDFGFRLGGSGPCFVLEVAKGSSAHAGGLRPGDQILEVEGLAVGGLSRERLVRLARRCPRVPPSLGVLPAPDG

Inadl_1, Q8NI35 = molecular target: Inadl_1, Q8NI35
Inadl_1, Q8NI35, sequence (Q8NI35 113-229): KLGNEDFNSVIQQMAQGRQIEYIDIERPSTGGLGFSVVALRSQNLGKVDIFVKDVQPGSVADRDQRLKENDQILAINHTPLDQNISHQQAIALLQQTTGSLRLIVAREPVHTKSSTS

Inadl_10, Q8NI35 = molecular target: Inadl_10, Q8NI35
Inadl_10, Q8NI35, sequence (Q8NI35 1673-1763): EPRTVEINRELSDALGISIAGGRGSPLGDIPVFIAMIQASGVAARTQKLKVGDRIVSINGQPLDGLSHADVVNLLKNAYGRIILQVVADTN

Inadl_5, Q8NI35 = molecular target: Inadl_5, Q8NI35
Inadl_5, Q8NI35, sequence (Q8NI35 673-780): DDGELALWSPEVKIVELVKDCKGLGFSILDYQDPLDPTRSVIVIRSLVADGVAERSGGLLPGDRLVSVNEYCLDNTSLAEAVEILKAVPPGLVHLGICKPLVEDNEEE

Inadl_9, Q8NI35 = molecular target: Inadl_9, Q8NI35
Inadl_9, Q8NI35, sequence (Q8NI35 1530-1615): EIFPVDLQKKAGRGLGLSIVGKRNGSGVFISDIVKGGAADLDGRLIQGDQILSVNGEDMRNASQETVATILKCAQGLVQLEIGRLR

LIN7A, O14910 = molecular target: T4, LIN7A, O14910
T4 sequence (O14910 103-200, limits assumed, looked up): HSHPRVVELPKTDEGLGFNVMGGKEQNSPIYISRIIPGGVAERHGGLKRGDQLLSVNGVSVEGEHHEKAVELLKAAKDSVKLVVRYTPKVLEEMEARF

LNX1_1, Q8TBB1 = molecular target: LNX1_1, Q8TBB1
LNX1_1, Q8TBB1, sequence (Q8TBB1 261-371): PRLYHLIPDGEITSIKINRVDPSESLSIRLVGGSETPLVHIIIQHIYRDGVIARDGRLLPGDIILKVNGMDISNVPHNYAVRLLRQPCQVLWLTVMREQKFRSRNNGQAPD

MAGI2_2, Q86UL8 = molecular target: MAGI2_2, Q86UL8
MAGI2_2, Q86UL8, sequence (Q86UL8 410-522): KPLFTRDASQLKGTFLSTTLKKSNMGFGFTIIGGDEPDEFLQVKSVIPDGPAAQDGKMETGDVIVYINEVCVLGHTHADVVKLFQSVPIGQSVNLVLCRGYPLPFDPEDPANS

MAGI2_3, Q86UL8 = molecular target: MAGI2_3, Q86UL8
MAGI2_3, Q86UL8, sequence (Q86UL8 600-682): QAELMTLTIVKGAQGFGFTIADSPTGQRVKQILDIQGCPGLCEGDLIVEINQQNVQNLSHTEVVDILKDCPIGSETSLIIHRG

MAGI2_6, Q86UL8 = molecular target: MAGI2_6, Q86UL8
MAGI2_6, Q86UL8, sequence (Q86UL8 1141-1229): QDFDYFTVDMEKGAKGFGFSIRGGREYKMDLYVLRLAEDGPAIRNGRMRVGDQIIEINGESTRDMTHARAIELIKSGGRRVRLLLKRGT

MAST2, Q6P0Q8 = molecular target: MAST2, Q6P0Q8
MAST2, Q6P0Q8, sequence (Q6P0Q8 1099-1202): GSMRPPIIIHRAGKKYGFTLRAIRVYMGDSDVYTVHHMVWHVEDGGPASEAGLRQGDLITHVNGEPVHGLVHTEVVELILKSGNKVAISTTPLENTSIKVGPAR

MPDZ_12, O75970 = molecular target: T5, MPDZ_12, O75970
T5 sequence (O75970 1857-1958, limits assumed, looked up): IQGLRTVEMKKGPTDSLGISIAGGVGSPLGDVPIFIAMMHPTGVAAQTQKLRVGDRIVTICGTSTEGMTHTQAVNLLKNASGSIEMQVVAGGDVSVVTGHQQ

NHERF2_2, Q15599 = molecular target: NHERF2_2, Q15599
NHERF2_2, Q15599, sequence (Q15599 142-238): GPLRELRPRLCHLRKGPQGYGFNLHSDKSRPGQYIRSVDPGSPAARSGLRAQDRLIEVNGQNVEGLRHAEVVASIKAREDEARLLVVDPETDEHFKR

NHERF4_4, Q86UT5 = molecular target: NHERF4_4, Q86UT5
NHERF4_4, Q86UT5, sequence (Q86UT5 464-550): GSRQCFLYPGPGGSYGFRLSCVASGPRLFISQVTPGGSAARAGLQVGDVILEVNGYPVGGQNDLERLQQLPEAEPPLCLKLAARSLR

PCLO, Q9Y6V0 = molecular target: T6, PCLO, Q9Y6V0
T6 sequence (Q9Y6V0 4491-4600, limits assumed, looked up): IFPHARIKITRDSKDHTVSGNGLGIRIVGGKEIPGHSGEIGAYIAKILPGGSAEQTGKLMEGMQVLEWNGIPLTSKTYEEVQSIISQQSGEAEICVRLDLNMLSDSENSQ

PDZRN4_1, Q6ZMN7 = molecular target: PDZRN4_1, Q6ZMN7
PDZRN4_1, Q6ZMN7, sequence (Q6ZMN7 213-318): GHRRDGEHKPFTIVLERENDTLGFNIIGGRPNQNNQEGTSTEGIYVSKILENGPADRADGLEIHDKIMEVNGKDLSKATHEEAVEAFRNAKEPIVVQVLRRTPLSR

PTPN13_1, Q12923 = molecular target: T7, PTPN13_1, Q12923
T7 sequence (Q12923 1088-1188, limits assumed, looked up): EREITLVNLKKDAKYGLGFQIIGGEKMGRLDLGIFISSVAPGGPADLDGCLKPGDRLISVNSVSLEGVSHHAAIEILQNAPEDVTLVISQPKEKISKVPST

PTPN3, P26045 = molecular target: PTPN3, P26045
PTPN3, P26045, sequence (P26045 505-587): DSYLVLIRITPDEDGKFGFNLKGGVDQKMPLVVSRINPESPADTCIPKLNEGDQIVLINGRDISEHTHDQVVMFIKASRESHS

SHANK1, Q9Y566 = molecular target: T8, SHANK1, Q9Y566
T8 sequence (Q9Y566 658-767, limits assumed, looked up): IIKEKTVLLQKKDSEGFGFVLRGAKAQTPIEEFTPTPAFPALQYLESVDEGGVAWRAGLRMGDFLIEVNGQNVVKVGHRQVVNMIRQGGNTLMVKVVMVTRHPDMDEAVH

TX1BP3, O14907 = molecular target: T9, TX1BP3, O14907
T9 sequence (O14907 10-122, limits assumed, looked up): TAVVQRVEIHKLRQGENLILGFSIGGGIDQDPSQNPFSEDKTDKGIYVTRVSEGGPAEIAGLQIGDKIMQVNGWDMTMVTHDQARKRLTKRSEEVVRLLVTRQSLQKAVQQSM

For LKVPPEERLI [CRB2, Q5IJ48], the pKd (ARHGEF11, O15085) was “below the threshold”, the pKd (DLG1_1, Q12959) was “below the threshold” and the pKd (DLG2_3, Q15700) was “below the threshold”. For the same binder, the pKd (DLG3_2, Q92796) was “below the threshold”, the pKd (DLG5_1, Q8TDM6) was “below the threshold” and the pKd (FRMPD1, Q5SYB0) was “below the threshold”. The pKd (GIPC2, Q8TF65) was “below the threshold”, the pKd (GORASP2, Q9H8Y8) was 3.62 and the pKd (GRASP, Q7Z6J2) was “below the threshold”. The pKd (GRID2IP_1, A4D2P6) was “below the threshold”, the pKd (Inadl_1, Q8NI35) was “below the threshold” and the pKd (Inadl_10, Q8NI35) was “below the threshold”. The pKd (Inadl_5, Q8NI35) was “below the threshold”, the pKd (Inadl_9, Q8NI35) was “below the threshold” and the pKd (LIN7A, O14910) was “below the threshold”. The pKd (LNX1_1, Q8TBB1) was “below the threshold”, the pKd (MAGI2_2, Q86UL8) was “below the threshold” and the pKd (MAGI2_3, Q86UL8) was “below the threshold”. For the same binder, the pKd (MAGI2_6, Q86UL8) was “below the threshold”, the pKd (MAST2, Q6P0Q8) was 4.3 and the pKd (MPDZ_12, O75970) was “below the threshold”. The pKd (NHERF2_2, Q15599) was “below the threshold”, the pKd (NHERF4_4, Q86UT5) was “below the threshold” and the pKd (PCLO, Q9Y6V0) was “below the threshold”. The pKd (PDZRN4_1, Q6ZMN7) was “below the threshold”, the pKd (PTPN13_1, Q12923) was “below the threshold” and the pKd (PTPN3, P26045) was “below the threshold”. For the same binder, the pKd (SHANK1, Q9Y566) was “below the threshold” and the pKd (TX1BP3, O14907) was “below the threshold”.

In the case of SGSLKLMTTV [DACT1, Q9NYF0], the pKd (ARHGEF11, O15085) is reported as 4.71, the pKd (DLG1_1, Q12959) is reported as 4.92 and the pKd (DLG2_3, Q15700) is reported as 4.4. For the same binder, the pKd (DLG3_2, Q92796) was 5.12, the pKd (DLG5_1, Q8TDM6) was “below the threshold” and the pKd (FRMPD1, Q5SYB0) was “below the threshold”. The pKd (GIPC2, Q8TF65) was “below the threshold”, the pKd (GORASP2, Q9H8Y8) was 4.32 and the pKd (GRASP, Q7Z6J2) was 4.02. The pKd (GRID2IP_1, A4D2P6) was “below the threshold”, the pKd (Inadl_1, Q8NI35) was “below the threshold” and the pKd (Inadl_10, Q8NI35) was 3.84. The pKd (Inadl_5, Q8NI35) was “below the threshold”, the pKd (Inadl_9, Q8NI35) was “below the threshold” and the pKd (LIN7A, O14910) was 3.68. The pKd (LNX1_1, Q8TBB1) was 4.04, the pKd (MAGI2_2, Q86UL8) was 5.28 and the pKd (MAGI2_3, Q86UL8) was “below the threshold”. The pKd (MAGI2_6, Q86UL8) was “below the threshold”, the pKd (MAST2, Q6P0Q8) was 5.36 and the pKd (MPDZ_12, O75970) was 3.77. For the same binder, the pKd (NHERF2_2, Q15599) was “below the threshold”, the pKd (NHERF4_4, Q86UT5) was “below the threshold” and the pKd (PCLO, Q9Y6V0) was “below the threshold”. The pKd (PDZRN4_1, Q6ZMN7) was “below the threshold”, the pKd (PTPN13_1, Q12923) was “below the threshold” and the pKd (PTPN3, P26045) was 3.8. For the same binder, the pKd (SHANK1, Q9Y566) was “below the threshold” and the pKd (TX1BP3, O14907) was 3.75.

ETQVTAETVI [TMEM225B, P0DP42] was tested, and the pKd (ARHGEF11, O15085) was “below the threshold”, the pKd (DLG1_1, Q12959) was 3.91 and the pKd (DLG2_3, Q15700) was 3.66. The pKd (DLG3_2, Q92796) was 4.43, the pKd (DLG5_1, Q8TDM6) was “below the threshold” and the pKd (FRMPD1, Q5SYB0) was “below the threshold”. The pKd (GIPC2, Q8TF65) was “below the threshold”, the pKd (GORASP2, Q9H8Y8) was 3.57 and the pKd (GRASP, Q7Z6J2) was “below the threshold”. The pKd (GRID2IP_1, A4D2P6) was “below the threshold”, the pKd (Inadl_1, Q8NI35) was “below the threshold” and the pKd (Inadl_10, Q8NI35) was “below the threshold”. For the same binder, the pKd (Inadl_5, Q8NI35) was “below the threshold”, the pKd (Inadl_9, Q8NI35) was “below the threshold” and the pKd (LIN7A, O14910) was “below the threshold”. The pKd (LNX1_1, Q8TBB1) was 3.59, the pKd (MAGI2_2, Q86UL8) was “below the threshold” and the pKd (MAGI2_3, Q86UL8) was “below the threshold”. The pKd (MAGI2_6, Q86UL8) was “below the threshold”, the pKd (MAST2, Q6P0Q8) was 5.12 and the pKd (MPDZ_12, O75970) was “below the threshold”. The pKd (NHERF2_2, Q15599) was “below the threshold”, the pKd (NHERF4_4, Q86UT5) was “below the threshold” and the pKd (PCLO, Q9Y6V0) was “below the threshold”. The pKd (PDZRN4_1, Q6ZMN7) was “below the threshold”, the pKd (PTPN13_1, Q12923) was “below the threshold” and the pKd (PTPN3, P26045) was 4.59. The pKd (SHANK1, Q9Y566) was “below the threshold” and the pKd (TX1BP3, O14907) was “below the threshold”.

— publication PMC9482650, “Quantitative fragmentomics allow affinity mapping of interactomes” (Nature Communications, 2022)
